± gives the standard deviation.
Assay: protein stability index of a GFP-peptide fusion (GPS, HEK-293T) (PSI 1-6); higher = more stable
[1] = treatment: DMSO, c terminus: a fixed tail appended
[2] = treatment: MLN4924 1 uM, 8 h, c terminus: a fixed tail appended
[3] = treatment: DMSO, c terminus: native
[4] = treatment: MLN4924 1 uM, 8 h, c terminus: native
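Further: 24-mer peptide tiles fused after GFP, lentivirally expressed, FACS-sorted into six equal bins by GFP/DsRed ratio, decoded by Illumina sequencing, PSI is the read-weighted mean bin number.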

Row | Sequence | protein stability index [1] | protein stability index [2] | protein stability index [3] | protein stability index [4]
1 | FRVNCYPGIDIREDLAQKLNLEED [HESX1] | 3.52 ± 0.34 | 3.69 ± 0.35 | – | –
2 | HLYLLRGLPGSGKTTLARQLQHDF [N4BP2L1] | 2.35 ± 0.47 | 2.27 ± 0.29 | – | –
3 | VYRAELVGELNGYLRDSSPAPCAD [PWWP2B] | 3.31 ± 0.21 | 3.52 ± 0.27 | – | –
4 | RRVPPRFSIPPTNHEIMPGGSVNI [PTPRD] | 3.38 ± 0.22 | 3.39 ± 0.22 | – | –
5 | LARADLEMQIENLKEELAYLKKNH [KRT17] | 3.12 ± 0.35 | 3.21 ± 0.45 | – | –
6 | SIVIFCLETLPEFRDEKDYPASTS [KCNA3] | 2.4 ± 0.54 | 2.19 ± 0.45 | – | –
7 | RLLLAGAEVQAKLENAEVLELTVR [HES6] | 2.37 ± 0.38 | 2.63 ± 0.49 | – | –
8 | AARLLFNMAGVTFRKFIPKCSKIV [DCTD] | 1.97 ± 0.15 | 2 ± 0.18 | – | –
9 | KEAFDTIQEQKVVLEENGEKNQVQ [SASS6] | 5.49 ± 0.34 | 5.71 ± 0.11 | – | –
10 | SSEHFEKLHEIFRGLHEDLQGVPE [VTI1B] | 4.11 ± 0.32 | 3.97 ± 0.12 | – | –
11 | CLIRSLLRREPSERLTAPEILLHP [TRIB1] | 2.48 ± 0.21 | 2.2 ± 0.21 | – | –
12 | QDAPLSDCTETIEGLELTEQTFSP [ADD1] | 5.46 ± 0.21 | 5.3 ± 0.23 | – | –
13 | ESRKSKRRNSEFEIFVDCDINREQ [TPH1] | 4.85 ± 0.31 | 4.92 ± 0.59 | – | –
14 | QLFEDPTVDKEVEIRKKVLKIYNK [MNAT1] | 3.41 ± 0.18 | 3.5 ± 0.29 | – | –
15 | VEKNEHCIENNIDLQVNRNFSLAT [R3HDM1] | 4 ± 0.23 | 3.93 ± 0.31 | – | –
16 | LKSSGLCESLTYGLPFILRPTSCW [M1AP] | 2.9 ± 0.31 | 3.06 ± 0.73 | – | –
17 | LKQLLTETDVWFSKQRKDFEGMAF [GMCL1] | 2.7 ± 0.48 | 2.52 ± 0.19 | – | –
18 | ERDIEIGFLPWLMNEVEKTMEYSM [RSPH3] | 2.41 ± 0.46 | 2.42 ± 0.18 | – | –
19 | ELTATFTKFDRDGNRILDEKEQEK [PKD2L1] | 5.38 ± 0.11 | 5.17 ± 0.18 | – | –
20 | VSLGQKLVAAYVLGLLTMVFLRT [MOSPD3] | – | – | 2.56 ± 0.71 | 2.07 ± 0.42
21 | KPYECNECGKAFSQSSYLSQHRRI [ZNF232] | 2.32 ± 0.073 | 2.44 ± 0.32 | – | –
22 | QDTELPKAEECDTITLNCPRNSDM [EDARADD] | 5.32 ± 0.29 | 5.42 ± 0.27 | – | –
23 | AQQLLCDEQAPQRQRLLADLLHNV [DFFB] | 3.98 ± 0.16 | 3.92 ± 0.24 | – | –

Row | Sequence | protein stability index [1] | protein stability index [2] | protein stability index [3] | protein stability index [4]
24 | VGFRLCNSTGGDCFYRGYTSGVAA [SCNN1D] | 2.01 ± 0.58 | 1.94 ± 0.54 | – | –
25 | TSSPAIWKFPVPVLKTSRSTPLSP [KLHL13] | 3.19 ± 0.21 | 3.32 ± 0.086 | – | –
26 | EDQVPALEAPEDIGSTSESKDWEE [MIA2] | 5.8 ± 0.12 | 5.71 ± 0.27 | – | –
27 | ESKVKDILSKVQKNHVGKPLLKMD [FAM98B] | 3.49 ± 0.17 | 3.79 ± 0.19 | – | –
28 | KSSSVDSELTSLCQSVLEDFNLCL [SMG5] | 2.95 ± 0.25 | 2.97 ± 0.3 | – | –
29 | RQPAFDTFDGSLFAVFPSLNEEQT [ETS2] | 3.89 ± 0.2 | 4.04 ± 0.31 | – | –
30 | SIYLVGGYSWSMGAYKSSTICYCP [KLHL14] | 2.87 ± 0.46 | 2.53 ± 0.87 | – | –
31 | KVIVVMRSLFIDRTIVKGYNENVY [MED27] | 2.77 ± 0.39 | 3.29 ± 0.33 | – | –
32 | QTLQAMDSEDFPQAAKQIKDGVTM [FSD1] | 4.97 ± 0.26 | 5.04 ± 0.083 | – | –
33 | VVVKLLHPPSHWPLIKATVGLIRN [CTNNB1] | 2.48 ± 0.66 | 2.51 ± 0.64 | – | –
34 | IVLAACSDYFCAMFTSELSEKGKP [KLHL12] | 2.76 ± 0.42 | 3.05 ± 0.64 | – | –
35 | PGKLFIGGLNRETNEKMLKAVFGK [RBMY1A1] | 2.69 ± 0.12 | 2.86 ± 0.14 | – | –
36 | PRASISHVTCVDQSEHTMVLRCQL [C2CD2L] | 2.34 ± 0.26 | 2.26 ± 0.28 | – | –
37 | YKGLFEVNPWKREVKLLLSSETPI [APMAP] | 2.71 ± 0.3 | 2.14 ± 0.18 | – | –
38 | HNYNILIATLRVALPSVMRFCCCV [MCOLN1] | 2.83 ± 0.59 | 2.9 ± 0.48 | – | –
39 | DMKSLKQVLEMKNQQIHEQEKKIL [MTUS2] | 4.23 ± 0.046 | 4.31 ± 0.33 | – | –
40 | VFAPVYFPEELHRKAALEQDLAFW [HMOX1] | 2.14 ± 0.43 | 2.4 ± 0.38 | – | –
41 | AEAQKNMYFKTRLKCPRSLSGGR [ZNF396] | – | – | 2.72 ± 0.45 | 2.99 ± 0.44
42 | PLPGKAFLRQLPFRGDDGIFDDNF [SNX3] | 3.47 ± 0.23 | 3.41 ± 0.47 | – | –
43 | DTGETSMLKRPVLLHLHQTAHADE [STEAP1] | 4.63 ± 0.078 | 4.88 ± 0.18 | – | –
44 | KLSPLRDRLVVTECQLTHSHPACP [ZSWIM9] | 3.56 ± 0.38 | 3.55 ± 0.27 | – | –
45 | SYFDMLYPEDSSWAAKAPGASSRE [SPDEF] | 3.56 ± 0.13 | 3.52 ± 0.22 | – | –
46 | MVHKRSHTGERPFQCNQCGASFTQ [IKZF1] | 2.86 ± 0.25 | 2.97 ± 0.43 | – | –

Row | Sequence | protein stability index [1] | protein stability index [2] | protein stability index [3] | protein stability index [4]
47 | SAENIPGCSSSGSCSQGSGILHYA [CRY1] | 2.9 ± 0.33 | 2.93 ± 0.2 | – | –
48 | QLLLHNTVIFYGADSEQADIARML [ZMYND11] | 2.28 ± 0.089 | 2.3 ± 0.13 | – | –
49 | KSPDNEDSGDSKDIRLTLMEEVLL [GOLPH3L] | 3.82 ± 0.3 | 4.07 ± 0.19 | – | –
50 | LVAHQRYHTGKTPFVCPECGQPCS [ZNF649] | 3.62 ± 0.45 | 4.03 ± 0.51 | – | –
51 | ELLCELGRPSMVWLSANPCPHCGD [PRAME] | 2.08 ± 0.043 | 2.28 ± 0.31 | – | –
52 | PASGASSIKPEASQMPPPAGGTSD [SCNN1D] | 5.43 ± 0.14 | 5.45 ± 0.19 | – | –
53 | ATFNCLNKRLAKYRMRNVHPKPKL [CLCN6] | 2.56 ± 0.15 | 2.8 ± 0.27 | – | –
54 | RTDSREQKLDAFLQPLSKPLSSQP [MLH1] | 4.32 ± 0.082 | 4.44 ± 0.14 | – | –
55 | HVEEHFQLLARRMQVDKKRVYLAT [FUT8] | 2.32 ± 0.14 | 2.29 ± 0.45 | – | –
56 | GTDSAGPKTVPSHVFSELWDLSEA [ELOA2] | 3.95 ± 0.25 | 4.39 ± 0.38 | – | –
57 | YLTIILILISFTCRFLLNSRVTDA [TMEM120A] | 3.19 ± 0.26 | 3.12 ± 0.24 | – | –
58 | KKKSVAMHTNYLSACSFTNSDMQI [GNB5] | 2.8 ± 0.12 | 2.8 ± 0.14 | – | –
59 | EEEAASPEGKRVPKRLRCWEEEED [FANCE] | 5.4 ± 0.42 | 5.38 ± 0.21 | – | –
60 | CTNSPAIVRFSGQSRGVPAVSESY [FBXO34] | 3.21 ± 0.46 | 3.14 ± 0.45 | – | –
61 | LNGLQHLKAKKVWYDMFRDAAAIL [ZMAT5] | 2.63 ± 0.56 | 2.49 ± 0.34 | – | –
62 | SRSVEDDKEGHLVCRIGDWLQERY [CLK3] | 3.41 ± 0.23 | 3.45 ± 0.2 | – | –
63 | VNLFLHFTVNPKPRVEYIDRPRCC [BTBD1] | 3.43 ± 0.18 | 3.12 ± 0.28 | – | –
64 | MTMTTMPESLNSPVSGKAVFMEFG [DLX1] | 2.42 ± 0.16 | 2.57 ± 0.21 | – | –
65 | DQTSLLVVDKETDNMYRLAHFSPF [PDZK1] | 2.61 ± 0.32 | 2.75 ± 0.26 | – | –
66 | GTPMGTFAPLWEVFRVSSDKLALC [FCHO1] | 2.23 ± 0.63 | 2.17 ± 0.41 | – | –
67 | GCECEDGPDGQEMDPPNPEEVKTP [GAGE1] | 5.48 ± 0.25 | 5.81 ± 0.14 | – | –
68 | SWRVGVVRVRQDSGAEGHSHSCYH [TRIM35] | 3.02 ± 0.41 | 3.2 ± 0.32 | – | –
69 | TQIKGLKNKPKKMGHIKPDLIDVD [PHTF1] | 4.42 ± 0.16 | 4.34 ± 0.26 | – | –

Row | Sequence | protein stability index [1] | protein stability index [2] | protein stability index [3] | protein stability index [4]
70 | ESGVSVSNSQPTNESHSIKAILKN [SLC29A1] | 5.03 ± 0.53 | 4.9 ± 0.46 | – | –
71 | RTDVGITHQHWQQFEPQLTLWDVF [RSAD1] | 2.25 ± 0.4 | 2.38 ± 0.39 | – | –
72 | EEHSLEQVQSMVVGEVLKDIETAC [SPDEF] | 4.8 ± 0.26 | 4.85 ± 0.091 | – | –
73 | RQSRRQSVSRFFADSGADPKGEPG [FBF1] | 5.04 ± 0.12 | 5.11 ± 0.17 | – | –
74 | LERASATLQDLVFDECGITDDQLL [PRAME] | 4.65 ± 0.36 | 4.71 ± 0.35 | – | –
75 | AYHVPNRTLASGRLLSYRGERVAA [DNAAF3] | 3.31 ± 0.23 | 3.4 ± 0.14 | – | –
76 | PSVKYLSHPRVQSGCDKEALLTGG [RNF180] | 3.99 ± 0.28 | 4.04 ± 0.29 | – | –
77 | EEKRRREEEERLRREEEERRRIEE [ACBD3] | 5.53 ± 0.29 | 5.49 ± 0.28 | – | –
78 | STDTAVTNEWEKRLSTSPVRLAAR [EPB41L3] | 4.3 ± 0.26 | 4.44 ± 0.18 | – | –
79 | PDLLPTDYRKQLQYPNPLPVLSGA [VPS39] | 3.34 ± 0.4 | 3.43 ± 0.14 | – | –
80 | NIDETCGRHHSQSTEVQAHPYSTT [TEKT4] | 4.62 ± 0.091 | 4.54 ± 0.07 | – | –
81 | LGFKANIMNEKCVVENAEKILGYL [SLC6A17] | 2.43 ± 0.23 | 2.26 ± 0.14 | – | –
82 | ECRNPQELESIRQDRDALHMEGLI [FEM1B] | 4.3 ± 0.16 | 4.31 ± 0.17 | – | –
83 | IIHEAGYSEEECKQYKAVVYSNTI [GNAI1] | 2.81 ± 0.04 | 2.77 ± 0.45 | – | –
84 | AVGQDCYTRIWSLHDARLLRTIPS [DCAF4] | 2.48 ± 0.36 | 2.39 ± 0.26 | – | –
85 | LLRRSVEGASSDNGCEVKNRKSIL [PHTF1] | 3.99 ± 0.17 | 4.05 ± 0.55 | – | –
86 | TIAPTLIADLFVADQRSRMLSIFY [SPNS1] | 2.87 ± 0.66 | 2.66 ± 0.6 | – | –
87 | ELHEECEGNHPSARKLTAQRRAST [NET1] | 4.92 ± 0.21 | 5.09 ± 0.15 | – | –
88 | FNMWGFGRVSKQASQPVKKQQENA [WDR41] | 3.12 ± 0.25 | 3.54 ± 0.18 | – | –
89 | SNLIRHQRIHAAERLCMGVDCTEI [ZNF263] | 3.17 ± 0.2 | 3.18 ± 0.21 | – | –

Reference: the supplement of paper PMC10567573
